# From patent US12077763B2, “RNA-based control of powdery mildew” (Greenlight Biosciences, Inc., priority 2021, dated 2024)
# B1: GS2684 (nucleic acid)
# sense: UUGGCAGCUCGCCAUUUCUUAUCAAAGAGAUACCUAAAUGAUAAACUUAAAAUACUUGCAGUGAAUAUAUCUGCUAGAGUAAGACGCUCUCCAACUAAGAAUGUGUUGUUUUGAAGAGUAUCCUCAAAAAUUUGAGCAUAAUCGAUUGUUUUUUUGACACCUUCAUCAUAAACCUUUUUAUUGUAUGCGACAAUACCAAAAAAAGGAUAAAGCCAGCUGGCAUAGCAGUUACUAAUAUCUUGAUUGACAAAAGACAUCCACUUUAAAAUAGAGGCAUAAGUCUAAUUAUGAAAGUCCACACGGAGUGUUAAGACAGGGACUGUUUUAUGUCAAGGAAAAUUUUUCAACUGAGAGAGCUUAGCAUACUCCUGCUUGGUUUU
# antisense: AAAACCAAGCAGGAGUAUGCUAAGCUCUCUCAGUUGAAAAAUUUUCCUUGACAUAAAACAGUCCCUGUCUUAACACUCCGUGUGGACUUUCAUAAUUAGACUUAUGCCUCUAUUUUAAAGUGGAUGUCUUUUGUCAAUCAAGAUAUUAGUAACUGCUAUGCCAGCUGGCUUUAUCCUUUUUUUGGUAUUGUCGCAUACAAUAAAAAGGUUUAUGAUGAAGGUGUCAAAAAAACAAUCGAUUAUGCUCAAAUUUUUGAGGAUACUCUUCAAAACAACACAUUCUUAGUUGGAGAGCGUCUUACUCUAGCAGAUAUAUUCACUGCAAGUAUUUUAAGUUUAUCAUUUAGGUAUCUCUUUGAUAAGAAAUGGCGAGCUGCCAA
# B2: ES49: dsRNA trigger SEQ ID NO 112; gene target Hypotethical effector (nucleic acid)
# DNA: ATGCGTTTCATCATAGGAGCTGTCGTCTCTTCACTCATTTTGTCGCCAATTTCAGTGCTTTCTATGGCGGCTAGTAATGACTCTACCGAAGCTGCAGCGCATATCATAAATGATTCTATACTAGAAGATGTTTCGAACGTTGCAGATTTCGACTGGTCTTCAACGTCATATCAAGGCCTAGAGAAAAGATTTTGTTTCAGACGAGGATGCAAGGAAGAAAAGCTCAAGAGGACATCAGGTTTCCAATGCAAAAAGAAGTACATCAGCTCGGAGAAAATTGAGAGAGCAAAAGCCGCTGGCTGTCCGGAAATCAAAAAAAATAAGCAGCGATCCGCTTTTCCTTCTCTCTACACTGCATCCGACTTTGCTGTTCCAGGTCCTTACCTAGAATGGCCGATCAGCCGCAATGGAAGGTTTTGGAACAAATTGAGTAAGGGCAAGTACCGTATCATCATGACCAAAAGCTGCAAGGTGG
# B3: GS2799 (nucleic acid)
# sense: UAGCAACGGGACGUCCACUUUGUACUCUUACAGCUUCACGUGUAUUAUCAAUCACUGAUUGAUGGUACUCAUGAGAGCCAUGAGAAAAAUUCAUACGGACAACAUUCAGACCAGCUCUUCGAAGUCCAUUUAAGGCCUCGACAUUGUUAGUUUUGGGGCCAAUAGUACAGAUAAUCGAGGUUCGACGAUAAUUCUUAGAGGUGGCAUACUCAGUGUCAAGUUGUGAUAGCCAUUCAAUGCGAGUAGAGCUGGUUAGGUGAUUCAUAGCUGAAACCAUAUUUUGAUCUAAUGAGAACUUUUAUUUGAUGUGAACGUAAAUAGUUGAGGAUGUGUAAAGUUGAGGAGAGAGUUGGCCAAAGAUACUCUUUGAGGGUAGCAAAUUUCGUUUAUCUUAUUAU
# antisense: AUAAUAAGAUAAACGAAAUUUGCUACCCUCAAAGAGUAUCUUUGGCCAACUCUCUCCUCAACUUUACACAUCCUCAACUAUUUACGUUCACAUCAAAUAAAAGUUCUCAUUAGAUCAAAAUAUGGUUUCAGCUAUGAAUCACCUAACCAGCUCUACUCGCAUUGAAUGGCUAUCACAACUUGACACUGAGUAUGCCACCUCUAAGAAUUAUCGUCGAACCUCGAUUAUCUGUACUAUUGGCCCCAAAACUAACAAUGUCGAGGCCUUAAAUGGACUUCGAAGAGCUGGUCUGAAUGUUGUCCGUAUGAAUUUUUCUCAUGGCUCUCAUGAGUACCAUCAAUCAGUGAUUGAUAAUACACGUGAAGCUGUAAGAGUACAAAGUGGACGUCCCGUUGCUA
# B4: GS2804 (nucleic acid)
# sense: UUUUAAAGCUAUGUAUCCUCAAGUAACAGAAUUAGAAAACCUAGUUUUCAAAUUGAGAUUUUGGAAAAAAUCUAACAACCACUUCACUUGGCUCCAUCAAUUUUGGAAAUAUAACUUAGGAGAUCUAAAACACGGCGAGAGUAACCCCAUUCAUUAUCAUACCAUGAUACGAGUUUGACAAAGUUGUCAUUGAGCGAGAUUCCAGCUUUCGCGUCGAAAAUGGAUGAGUGAUUAUCACCGAUUAAAUCAGUUGAAACGAUGUCAUCCUCAGUAUAAGAAAGUAUGCCUUUUAAUUCACCAUUGGCAGCCUCCUUGAUAGCAGCCUUAAUUUGGUCAUAAGUAGCACCCUUUCCAAUGCGGCAUGUUAAGUCAACAACGGAAACAUUAGCAGUGGGUA
# antisense: UACCCACUGCUAAUGUUUCCGUUGUUGACUUAACAUGCCGCAUUGGAAAGGGUGCUACUUAUGACCAAAUUAAGGCUGCUAUCAAGGAGGCUGCCAAUGGUGAAUUAAAAGGCAUACUUUCUUAUACUGAGGAUGACAUCGUUUCAACUGAUUUAAUCGGUGAUAAUCACUCAUCCAUUUUCGACGCGAAAGCUGGAAUCUCGCUCAAUGACAACUUUGUCAAACUCGUAUCAUGGUAUGAUAAUGAAUGGGGUUACUCUCGCCGUGUUUUAGAUCUCCUAAGUUAUAUUUCCAAAAUUGAUGGAGCCAAGUGAAGUGGUUGUUAGAUUUUUUCCAAAAUCUCAAUUUGAAAACUAGGUUUUCUAAUUCUGUUACUUGAGGAUACAUAGCUUUAAAA
# B5: GS2680 (nucleic acid)
# sense: UACUAACAAACUGUCCACCAAAAGUAUAUAUAAUUCCUGCAACUGAGGGAGUAGAUCGCUUGCAAAUAAAAUCAAAAUCUAGCAUUCCUUGAACAGCUCUAGGCUGAAGACCAUAGACGAAACAUCUUGUUUUAUCAUGGAAGAGUGUAUGAGUUGCGUGAGGGCUCAAUGGGCGGCUAGGAGCAGCAAACCGACAGAUGUUAUCAUUGGCUGAUUGCCCAACUUUCGUAGUAUCAUUUGGAGUAGCUGAUGGCAUUUUAAAAUAUUACAAGGUCACAGAGUGUAAUUUUGGGCCUGAUUUCUUCUGUAGAGAUGACUCAAGUAGUAAUAUUUAUCUCUUUCAAUGGUGUAGUAUAUUAAUAGUAUACUCGGGAGAGAAAAUGAUGUGAUAAAAAUUA
# antisense: UAAUUUUUAUCACAUCAUUUUCUCUCCCGAGUAUACUAUUAAUAUACUACACCAUUGAAAGAGAUAAAUAUUACUACUUGAGUCAUCUCUACAGAAGAAAUCAGGCCCAAAAUUACACUCUGUGACCUUGUAAUAUUUUAAAAUGCCAUCAGCUACUCCAAAUGAUACUACGAAAGUUGGGCAAUCAGCCAAUGAUAACAUCUGUCGGUUUGCUGCUCCUAGCCGCCCAUUGAGCCCUCACGCAACUCAUACACUCUUCCAUGAUAAAACAAGAUGUUUCGUCUAUGGUCUUCAGCCUAGAGCUGUUCAAGGAAUGCUAGAUUUUGAUUUUAUUUGCAAGCGAUCUACUCCCUCAGUUGCAGGAAUUAUAUAUACUUUUGGUGGACAGUUUGUUAGUA
# B6: GS3295 (nucleic acid)
# sense: UCAUCUUUUGCCGCUCUUUAUCAUGAUCUUGAUAUGGGAUUUACACCGAUCAACUUUACAUUUUACUGGGCACCUCUACCUUGGAAUCGUGCUCGUGAUCAUGCCCAAAGAACUGUUGCUAGGACGAACCUCGCUCCAAGGGGGCUUUAUGGGAAUCUGCCUCGUAGUAUAAAGUUCUGCAGCUGGCUCUACGGAUUGCAUCUACAACAACUACAACAUCAUCAUCAUCAUCAUCUUCAUCUUCAUCUUC
# antisense: GAAGAUGAAGAUGAAGAUGAUGAUGAUGAUGAUGUUGUAGUUGUUGUAGAUGCAAUCCGUAGAGCCAGCUGCAGAACUUUAUACUACGAGGCAGAUUCCCAUAAAGCCCCCUUGGAGCGAGGUUCGUCCUAGCAACAGUUCUUUGGGCAUGAUCACGAGCACGAUUCCAAGGUAGAGGUGCCCAGUAAAAUGUAAAGUUGAUCGGUGUAAAUCCCAUAUCAAGAUCAUGAUAAAGAGCGGCAAAAGAUGA
# B7: GS2685 (nucleic acid)
# sense: GUCUCAUAUCACGAACAGCGAAGCGACCUAAUGGAGGAUAACUUGAAAAUGACUCAACACACAUAGGUUUAGAUGGAAUCAUUUUAACAAUUGCUGCGUCACCAGAUUUAACAAAUUUUGGAGUUGCCUCAAUAGACUUUCCAGUACGACGAUCAAUUUUUUCAAGAAGUUCUGCAAAUUUGCAAGCAAUGUGAGCCGUAUGACAAUCAAGUACAGGUGCGUAACCAGCUCCAAUUUGACCUGGGUGGUUUAACACGAUAACUUGUGCGGUAAAAUGCUCGGCACCCUUAGGGGGGUCAUUCUUAGAAUCACCACAAACAUUACCACGACGGAUUUCUUUCACCGAAACGUUCUUUACAUUGAAGCCAA
# antisense: UUGGCUUCAAUGUAAAGAACGUUUCGGUGAAAGAAAUCCGUCGUGGUAAUGUUUGUGGUGAUUCUAAGAAUGACCCCCCUAAGGGUGCCGAGCAUUUUACCGCACAAGUUAUCGUGUUAAACCACCCAGGUCAAAUUGGAGCUGGUUACGCACCUGUACUUGAUUGUCAUACGGCUCACAUUGCUUGCAAAUUUGCAGAACUUCUUGAAAAAAUUGAUCGUCGUACUGGAAAGUCUAUUGAGGCAACUCCAAAAUUUGUUAAAUCUGGUGACGCAGCAAUUGUUAAAAUGAUUCCAUCUAAACCUAUGUGUGUUGAGUCAUUUUCAAGUUAUCCUCCAUUAGGUCGCUUCGCUGUUCGUGAUAUGAGAC
# B8: GS2732 (nucleic acid)
# sense: GGAAAAUGUGAGUUGCCGCCAUCGAUAAUUAUGUCUCCUUGAUCGAGGAAUGGCAAUAAUGUUUCAAUAAAAUCAUCAACAGGCUUUCCAGCCAUGACAAGCAGCAUAAUACGACGUGGUUUUUUUAGUUUACUCACAAAUUCCUGGAUAGAACGAGCACCUUCAAUAGAUUUCCCUUUUGCCUCAUUUUCAAGAAAGUGGUCUACCUUAGCUACAGUUCGAUUAUAUGCAAUAACAUUAAAUCCAUGGUCUGCAGCAUUCAGAAUUAGAUUCUGCCCCAUGACAGCUAGACCGAUAAGGCCAAAGUCUCCUGUAGCAGCACUCAUAUUUUUUUGAUUAUAAAUUUAGAAGCCCAAAGACUGGAGCUUAUAUGGAGAACAGAGAUUACACAGAUGGGA
# antisense: UCCCAUCUGUGUAAUCUCUGUUCUCCAUAUAAGCUCCAGUCUUUGGGCUUCUAAAUUUAUAAUCAAAAAAAUAUGAGUGCUGCUACAGGAGACUUUGGCCUUAUCGGUCUAGCUGUCAUGGGGCAGAAUCUAAUUCUGAAUGCUGCAGACCAUGGAUUUAAUGUUAUUGCAUAUAAUCGAACUGUAGCUAAGGUAGACCACUUUCUUGAAAAUGAGGCAAAAGGGAAAUCUAUUGAAGGUGCUCGUUCUAUCCAGGAAUUUGUGAGUAAACUAAAAAAACCACGUCGUAUUAUGCUGCUUGUCAUGGCUGGAAAGCCUGUUGAUGAUUUUAUUGAAACAUUAUUGCCAUUCCUCGAUCAAGGAGACAUAAUUAUCGAUGGCGGCAACUCACAUUUUCC
# Test system: E. necator
# Experiment: Leaf disc assay, dry inoculum (settling tower), decrease in disease severity / hyphal growth (Example 2)
# Details: decrease in disease severity (hyphal growth) relative to untreated control; time point 1 (untreated control hyphal growth ≥50%); value ± SE
row,Molecule,% decrease =/− SE TP1
1,B1,31 ± 4%
2,B2,9 ± 1%
3,B3,31 ± 5%
4,B4,32 ± 5%
5,B5,12 ± 4%
6,B6,33 ± 6%
7,B7,23 ± 0%

# Same assay, conditions: decrease in disease severity (hyphal growth) relative to untreated control; time point 2; value ± SE
row,Molecule,% decrease =/− SE TP2
1,B8,18 ± 10%
2,B1,18 ± 4%
3,B2,6 ± 3%
4,B3,20 ± 8%
5,B4,10 ± 8%
6,B5,11 ± 5%
7,B6,26 ± 8%
8,B7,15 ± 0%
